Data on one molecule can be found in publication PMC8280819 (The EMBO Journal, 2021).

The target of one series is T1, His-AosR (Mycobacterium tuberculosis H37Rv, UniProt P9WM25 1-218).
T1 sequence: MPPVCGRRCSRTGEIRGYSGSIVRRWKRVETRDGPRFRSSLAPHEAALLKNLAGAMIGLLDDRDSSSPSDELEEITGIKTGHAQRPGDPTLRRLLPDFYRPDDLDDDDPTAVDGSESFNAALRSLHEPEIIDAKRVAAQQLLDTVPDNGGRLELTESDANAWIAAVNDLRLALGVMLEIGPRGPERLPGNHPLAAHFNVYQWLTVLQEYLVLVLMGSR
The experiment in a line: EMSA. In general terms: A gel shift assay detects complexes by their altered migration in electrophoresis.

The target of another series is His-SigH (Mycobacterium tuberculosis H37Rv, UniProt P9WGH9 1-216). The experiment in a line: EMSA.
Sequence of His-SigH (P9WGH9 whole entry): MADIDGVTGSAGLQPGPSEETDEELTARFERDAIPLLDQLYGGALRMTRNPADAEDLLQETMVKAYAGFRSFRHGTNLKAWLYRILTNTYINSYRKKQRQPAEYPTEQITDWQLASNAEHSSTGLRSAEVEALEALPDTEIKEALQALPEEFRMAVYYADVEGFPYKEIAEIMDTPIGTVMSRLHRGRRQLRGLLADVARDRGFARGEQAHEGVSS

B1: 100 bp upstream of mec (intragenic auxiliary promoter) (dsDNA)
DNA 1: AGTCGTGCGGTGCTGGCCGGCGTGCTCAATGCTCAGCCGGTAGCCGGAATACCGACCTACCGTGACATGTTTTCCCGGAGCATTCGGGTCTTGAAACTCA
DNA 2: TATGAGTTTCAGGACCCGAATGCTCCCCGGGAAACATGTCACGGTAGGTCGGTATTCCGGCTACCGGCTGAGCATTGAGCACGCCGGCCAGCCACCGCACGACT
Regarding B1, the binding result with His-AosR and in the series with His-SigH was “binds” each time.
